Molecular target: T1, W338S gp120 (rgp120 of the HXB2 clone of HIV-IIIB with the W338S mutation) (HIV-1 (HXB2 clone of HIV-IIIB), UniProt P04578 33-511)
T1 construct: domain: gp120; Position counted in HxBc2 numbering; also called muted gp120; mutant gp120
Assay: FACS on CEM cells: no labelling by anti-CXCR4 12GS after incubation with gp120

B1: CXCR4 receptor on the cell surface (receptor)
chain: MEGISIYTSDNYTEEMGSGDYDSMKEPCFREENANFNKIFLPTIYSIIFLTGIVGNGLVILVMGYQKKLRSMTDKYRLHLSVADLLFVITLPFWAVDAVANWYFGNFLCKAVHVIYTVNLYSSVLILAFISLDRYLAIVHATNSQRPRKLLAEKVVYVGVWIPALLLTIPDFIFANVSEADDRYICDRFYPNDLWVVVFQFQHIMVGLILPGIVILSCYCIIISKLSHSKGHQKRKALKTTVILILAFFACWLPYYIGISIDSFILLEIIKQGCEFENTVHKWISITEALAFFHCCLNPILYAFLGAKFKTSAQHALTSVSRGSSLKILSKGKRGGHSSVSTESESSSFHSS
notes: whole, on cells; also called CXCR4 co-receptor; CEM cells CD4+/CXCR4+
binding result: binds
